These are literature values, as cited in article PMC4492699.

The target in this data set is HER2 (Homo sapiens) (UniProt P04626).

Usually Kd stands for the equilibrium constant for the complex coming apart. Regarding trastuzumab, the Kd was 0.1 nM.
